B1: Cyclin-dependent kinase 4 inhibitor C (Homo sapiens), P42773 (parent)
chain: MAEPWGNELASAAARGDLEQLTSLLQNNVNVNAQNGFGRTALQVMKLGNPEIARRLLLRGANPDLKDRTGFAVIHDAARAGFLDTLQTLLEFQADVNIEDNEGNLPLHLAAKEGHLRVVEFLVKHTASNVGHRNHKGDTACDLARLYGRNEVVSLMQANGAGGATNLQ

Variants of: B1
Details: with cdk6_human CDK6, Q00534
Sequence of cdk6_human CDK6, Q00534 (Q00534 whole entry): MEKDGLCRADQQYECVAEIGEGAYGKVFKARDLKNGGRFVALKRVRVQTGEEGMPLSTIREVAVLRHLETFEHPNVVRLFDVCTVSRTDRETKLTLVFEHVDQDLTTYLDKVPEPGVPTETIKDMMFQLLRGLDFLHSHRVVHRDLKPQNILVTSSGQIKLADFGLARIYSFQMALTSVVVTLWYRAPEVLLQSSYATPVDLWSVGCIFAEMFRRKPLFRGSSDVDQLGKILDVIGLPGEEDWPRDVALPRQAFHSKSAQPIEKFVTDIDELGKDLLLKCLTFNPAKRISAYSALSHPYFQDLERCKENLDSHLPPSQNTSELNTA

Row | Variant | effect of a mutation on the interaction
1 | F37I | disrupting interaction
2 | A61D | decreasing interaction

From IntAct's records for PubMed 18394558
